Assay results from the supplement of paper PMC10899765.
“And” between values parts separate entries of the source, which are not always exact repeats. Equal entries are not always repeated.

Key:
Settings in all cases: 20 nM; 72 h
MCF10A [1] = experiment: 5+ nucleoli phenotype percent effect (relative to siNT 0% and siKIF11 100%); higher = more cells with five or more nucleoli
Procedure: (§1)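 After 72 h, cells were fixed and stained with Hoechst and anti-fibrillarin, and nucleoli per nucleus were counted with CellProfiler. Values are plate-adjusted percent effect for the one-nucleolus and 5+ nucleoli phenotypes, normalised to siNT (0%) and to the positive controls siNOL11 or siKIF11 (100%), as the mean of biological triplicates. Percent viability is the nuclei count relative to siNT.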

MCF10A [2] = experiment: one-nucleolus phenotype percent effect (relative to siNT 0% and siNOL11 100%); higher = more cells with one nucleolus (ribosome biogenesis inhibition)
Procedure: as §1

MCF10A [3] = experiment: percent viability (nuclei count relative to siNT); higher = more viable cells
Procedure: as §1

Sequence | 5+ nucleoli phenotype percent effect (MCF10A [1]) | one-nucleolus phenotype percent effect (MCF10A [2]) | percent viability (MCF10A [3])
UAACUGGUUGAACAACUGAACC [hsa-miR-582-3p] | 31.1% | -29.8% | 106%
UAAGGAGGGGGAUGAGGGG [hsa-miR-6891-5p] | -18.8% | -7.18% | 51.8%
UAAGGCACCCUUCUGAGUAGA [hsa-miR-506-3p] | -31.8% | 57.2% | 15.7%
UAAGGGGUGUAUGGCAGAUGCA [hsa-miR-3936] | -17.6% | 36.7% | 19.2%
UAAGGUGCAUCUAGUGCAGAUAG [hsa-miR-18a-5p] | -34.5% | 37.7% | 49.1%
UAAGGUGCAUCUAGUGCAGUUAG [hsa-miR-18b-5p] | -32.4% | 40.6% | 41.9%
UAAGUGCUUCCAUGCUU [hsa-miR-302e] | 65.3% | -16.8% | 93.6%
UAAGUGCUUCCAUGUUUCAGUGG [hsa-miR-302c-3p] | 52.1% | -16.2% | 78%
UAAGUGCUUCCAUGUUUGAGUGU [hsa-miR-302d-3p] | 63.5% | -16.6% | 68%
UAAGUGCUUCCAUGUUUUAGUAG [hsa-miR-302b-3p] | 33.7% | -12.2% | 74.9%
UAAGUGCUUCCAUGUUUUGGUGA [hsa-miR-302a-3p] | 72.3% | -15.9% | 78.9%
UAAUACUGCCGGGUAAUGAUGGA [hsa-miR-200c-3p] | 62.3% | -17% | 104%
UAAUACUGCCUGGUAAUGAUGA [hsa-miR-200b-3p] | 93.4% | -28.6% | 104%
UAAUACUGUCUGGUAAAACCGU [hsa-miR-429] | 61.9% | -19% | 112%
UAAUCCUUGCUACCUGGGUGAGA [hsa-miR-500a-5p] | -16.1% | 19.3% | 55%
UAAUCUCAGCUGGCAACUGUGA [hsa-miR-216a-5p] | -8.01% | 6.23% | 67.7%
UAAUGAUUCAUCAGACUCAGAU [hsa-miR-580-5p] | -17.8% | 14% | 32.9%
UAAUGCAUUAAAUUAUUGAAGG [hsa-miR-5700] | 47.4% | -23.8% | 125%
UAAUGCCCCUAAAAAUCCUUAU [hsa-miR-365a-3p] | 6.01% | 2.74% | 89.5%
UAAUGCCCCUAAAAAUCCUUAU [hsa-miR-365b-3p] | -12.3% | 5.41% | 37.9%
UAAUUGCUUCCAUGUUU [hsa-miR-302f] | -31.2% | 22.1% | 65.5%
UAAUUUUAUGUAUAAGCUAGU [hsa-miR-590-3p] | 34.3% | -23.9% | 121%
UACAAGUCAGGAGCUGAAGCAG [hsa-miR-6882-5p] | 1.17% | -8.28% | 45.8%
UACACAAGAAAACCAAGGCUCA [hsa-miR-4801] | 20.3% | -13.4% | 82%

Sequence | 5+ nucleoli phenotype percent effect (MCF10A [1]) | one-nucleolus phenotype percent effect (MCF10A [2]) | percent viability (MCF10A [3])
UACAGAUGCAGAUUCUCUGACUUC [hsa-miR-5683] | 8.12% | 15.3% | 40.9%
UACAGCCCUGUGAUCUUUCCAG [hsa-miR-6856-3p] | 21% | -21% | 74.9%
UACAGUACUGUGAUAACUGAA [hsa-miR-101-3p] | -26.5% | 11.6% | 86%
UACAGUAUAGAUGAUGUACU [hsa-miR-144-3p] | -8.45% | -2.3% | 119%
UACAUGGAUGGAAACCUUCAAGC [hsa-miR-4802-3p] | -3.05% | -8.74% | 70.6%
UACCACAGGGUAGAACCACGG [hsa-miR-140-3p] | 47.1% | -23.5% | 118%
UACCAUUAGAAGAGCUGGAAGA [hsa-miR-6512-5p] | 11% | 1.01% | 78.6%
UACCCAGAGCAUGCAGUGUGAA [hsa-miR-1912] | -35.1% | 39.9% | 29.7%
UACCCAGUCUCCGGUGCAGCC [hsa-miR-3130-5p] | -32.6% | 44% | 27.4%
UACCCAUUGCAUAUCGGAGUUG [hsa-miR-660-5p] | -38.8% | 44.9% | 30%
UACCCUGUAGAACCGAAUUUGUG [hsa-miR-10b-5p] | -26.1% | 25.8% | 30.6%
UACCCUGUAGAUCCGAAUUUGUG [hsa-miR-10a-5p] | -19.7% | 19.4% | 39.9%
UACCUGGGAGACUGAGGUUGGA [hsa-miR-7851-3p] | 24.6% | -15.4% | 61.5%
UACGCGCAGACCACAGGAUGUC [hsa-miR-3939] | 11.7% | -5.45% | 38.1%
UACGGUGAGCCUGUCAUUAUUC [hsa-miR-433-5p] | -4.1% | 4.21% | 32.9%
UACGUAGAUAUAUAUGUAUUUU [hsa-miR-1277-3p] | 41.8% | -20.9% | 135%
UACGUCAUCGUUGUCAUCGUCA [hsa-miR-598] | 47.8% | -26.8% | 151%
UACUAACUGCAGAUUCAAGUGA [hsa-miR-4637] | 24.1% | -24.1% | 140%
UACUCAAAAAGCUGUCAGUCA [hsa-miR-888-5p] | 11.8% | -13.4% | 82.3%
UACUCAGGAGAGUGGCAAUCAC [hsa-miR-510] | -26.8% | 41.9% | 20.5%
UACUCCAGAGGGCGUCACUCAUG [hsa-miR-508-5p] | 0.947% | 19.6% | 60.6%
UACUCUGGAGAGUGACAAUCAUG [hsa-miR-514a-5p] | 29.4% and 19% | -13.3% and -15.4% | 56.4% and 66.9%
UACUGCAGACAGUGGCAAUCA [hsa-miR-509-5p] | 5.43% | 7.14% | 48.8%
UACUGCAGACGUGGCAAUCAUG [hsa-miR-509-3-5p] | -30.4% | 26.3% | 26.5%
